One block for each binder: values may come before it. Where no end group is shown, it is not given here. The star is where a group is joined. Biotin = O=C1N[C@H]2[C@H](CS[C@H]2CCCCC(=O)*)N1
Columns and labels:
[1] = biological target: T1, Peptide 3-BSA (SSMEDYVNFN-C conjugated to BSA) (human); assay: ELISA; Ab 0.25 ug/mL; repI
T1 peptide: SSMEDYVNFNC(BSA)
Experimental: (§1) In brief, plates with each non-conjugated peptide (50 μg/mL) or BSA-conjugated peptide (5 μg/mL) were coated in 0.58M carbonate-bicarbonate buffer pH9.5, 100 μL/well, at 4° C. […] After washing, wells were incubated with the 3, 3′,5,5′-Tetramethylbenzidine (TMB) HRP substrate and reactions were stopped with 2M HCl and OD450 was recorded.

[2] = biological target: T2, Peptide 4-BSA (SMEDYVNFNF-C conjugated to BSA) (human); assay: ELISA; Ab 0.25 ug/mL; repI
T2 peptide: SMEDYVNFNFC(BSA)
Experimental: as §1

[3] = biological target: T3, Peptide 1, non-conjugated (MADDYGSEST-C) (human); assay: ELISA; Ab 0.25 ug/mL; repI
T3 construct: With the extra C-terminal Cys
T3 peptide: MADDYGSESTC
Experimental: as §1

[4] = biological target: T4, Peptide 3, non-conjugated (SSMEDYVNFN-C) (human); assay: ELISA; Ab 0.25 ug/mL; repI
T4 construct: With the extra C-terminal Cys
T4 peptide: SSMEDYVNFNC
Experimental: as §1

[5] = biological target: T5, Peptide 4, non-conjugated (SMEDYVNFNF-C) (human); assay: ELISA; Ab 0.25 ug/mL; repI
T5 construct: With the extra C-terminal Cys
T5 peptide: SMEDYVNFNFC
Experimental: as §1

[6] = biological target: T6, BSA (negative control coating) (bovine, UniProt P02769 25-607); assay: ELISA; Ab 0.25 ug/mL; repI
T6 construct: also called Negative control BSA
Experimental: as §1

[7] = biological target: T7, Peptide 1-BSA (MADDYGSEST-C conjugated to BSA) (human); assay: ELISA; Ab 0.25 ug/mL; repI
T7 peptide: MADDYGSESTC(BSA)
Experimental: as §1

[8] = biological target: T8, Peptide 2-BSA (GSESTSSMED-C conjugated to BSA) (human); assay: ELISA; Ab 0.25 ug/mL; repI
T8 peptide: GSESTSSMEDC(BSA)
Experimental: as §1

[9] = biological target: T2, Peptide 4-BSA (SMEDYVNFNF-C conjugated …); assay: ELISA; Ab 0.01563 ug/mL; repII
Experimental: as §1

[10] = biological target: T3, Peptide 1, non-conjugated (MADDYGSEST-C); assay: ELISA; Ab 0.01563 ug/mL; repII
Experimental: as §1

[11] = biological target: T9, Peptide 2, non-conjugated (GSESTSSMED-C) (human); assay: ELISA; Ab 0.01563 ug/mL; repII
T9 construct: With the extra C-terminal Cys
T9 peptide: GSESTSSMEDC
Experimental: as §1

[12] = biological target: T4, Peptide 3, non-conjugated (SSMEDYVNFN-C); assay: ELISA; Ab 0.01563 ug/mL; repII
Experimental: as §1

[13] = biological target: T5, Peptide 4, non-conjugated (SMEDYVNFNF-C); assay: ELISA; Ab 0.01563 ug/mL; repII
Experimental: as §1

[14] = biological target: T6, BSA (negative control coating); assay: ELISA; Ab 0.01563 ug/mL; repII
Experimental: as §1

[15] = biological target: T10, antigen peptide-BSA (immunisation peptide #1 MADDYGSESTSSMEDYVNFNF-C conjugated to BSA) (human, extra C-terminal Cys conjugated to BSA); assay: ELISA; Ab 0.01563 ug/mL; repII
T10 construct: also called Positive control antigen peptide-BSA; MADDY peptide
T10 peptide: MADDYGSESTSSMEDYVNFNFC
Experimental: as §1

[16] = biological target: T7, Peptide 1-BSA (MADDYGSEST-C conjugated …); assay: ELISA; Ab 0.01563 ug/mL; repII
Experimental: as §1

[17] = biological target: T8, Peptide 2-BSA (GSESTSSMED-C conjugated …); assay: ELISA; Ab 0.01563 ug/mL; repII
Experimental: as §1

[18] = biological target: T11, biotin-peptide TSSMEDYVNF (human); assay: ELISA biotin-peptide; scFv 0.3125 ug/mL; repI
T11 peptide: Biotin-TSSMEDYVNF
Experimental: (§2) The peptides were synthesized naked or with a N-terminal Biotin modification with a purity of >98%. All four scFvs were verified by ELISA that can be detected with anti-His antibodies. ELISA was performed for scFv-peptide binding validation. Briefly, naked peptides were coated (50 μg/mL) in 0.58M carbonate-bicarbonate buffer pH9.5, 100 μL/well, 4° C. O/N. Then after blocking (3% BSA-PBS, 300 μL/well 37° C. 1.5 h) and washing (PBS+Tween-20 0.05% v/v (0.05% PBST), wells were incubated with each purified scFv antibody at concentration of 1 μg/mL in PBS at 37° C. 1 h. After washing (0.05% PBST), wells were incubated with secondary antibodies (goat anti-His IgG-HRP) in PBS, 37° C., 30 min. After washing, and incubation with TMB substrate, reactions were stopped with 2M HCl and reading was quantified at OD450.
(§3) ELISA with biotin-conjugated peptides (5 μg/mL) was performed very similar to described above with minor modifications.
(§4) A full curve ELISA was performed for each positive scFv/biotin-peptide pair in order to confirm previous results. Tables 15-17 show ELISA results of the dose-dependent full curve for each positive peptide with scFv “CCR9_HUM”, “Comp-2” and “Comp-3”, respectively.

[19] = biological target: T12, biotin-peptide SSMEDYVNFN (human); assay: ELISA biotin-peptide; scFv 0.3125 ug/mL; repI
T12 peptide: Biotin-SSMEDYVNFN
Experimental: as §2, §3, §4

[20] = biological target: T13, biotin-peptide SMEDYVNFNF (human); assay: ELISA biotin-peptide; scFv 0.3125 ug/mL; repI
T13 peptide: Biotin-SMEDYVNFNF
Experimental: as §2, §3, §4

[21] = biological target: T14, biotin-peptide MEDYVNFNFT (human); assay: ELISA biotin-peptide; scFv 0.3125 ug/mL; repI
T14 peptide: Biotin-MEDYVNFNFT
Experimental: as §2, §3, §4

[22] = biological target: T11, biotin-peptide TSSMEDYVNF; assay: ELISA biotin-peptide; scFv 0.15625 ug/mL; repII
Experimental: as §2, §3, §4

[23] = biological target: T12, biotin-peptide SSMEDYVNFN; assay: ELISA biotin-peptide; scFv 0.15625 ug/mL; repII
Experimental: as §2, §3, §4

[24] = biological target: T13, biotin-peptide SMEDYVNFNF; assay: ELISA biotin-peptide; scFv 0.15625 ug/mL; repII
Experimental: as §2, §3, §4

[25] = biological target: T14, biotin-peptide MEDYVNFNFT; assay: ELISA biotin-peptide; scFv 0.15625 ug/mL; repII
Experimental: as §2, §3, §4

T6 sequence (P02769 25-607 limits assumed): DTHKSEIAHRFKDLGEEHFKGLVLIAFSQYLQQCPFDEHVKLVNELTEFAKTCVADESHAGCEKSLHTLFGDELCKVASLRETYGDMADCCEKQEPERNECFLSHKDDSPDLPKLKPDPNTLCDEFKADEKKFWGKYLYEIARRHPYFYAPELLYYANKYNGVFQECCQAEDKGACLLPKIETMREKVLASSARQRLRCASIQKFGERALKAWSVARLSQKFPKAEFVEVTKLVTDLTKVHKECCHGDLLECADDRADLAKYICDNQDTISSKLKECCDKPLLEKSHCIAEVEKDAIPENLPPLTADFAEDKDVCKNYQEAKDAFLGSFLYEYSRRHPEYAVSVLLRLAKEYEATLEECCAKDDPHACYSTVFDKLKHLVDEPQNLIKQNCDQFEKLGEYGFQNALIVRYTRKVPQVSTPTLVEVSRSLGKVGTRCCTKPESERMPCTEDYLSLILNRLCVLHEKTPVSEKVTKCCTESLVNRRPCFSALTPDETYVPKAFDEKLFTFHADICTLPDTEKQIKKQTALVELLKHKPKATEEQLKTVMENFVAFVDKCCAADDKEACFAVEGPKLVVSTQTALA

- OD450 [1]: 1.95 OD
- OD450 [2]: 2.46 OD
- OD450 [3]: 0.02 OD
- OD450 [4]: 1.89 OD
- OD450 [5]: 2.09 OD
- OD450 [6]: 0.01 OD
- OD450 [7]: 0.02 OD
- OD450 [8]: 0.02 OD
- OD450 [9]: 1.03 OD
- OD450 [10]: 0.01 OD
- OD450 [11]: 0.01 OD
- OD450 [12]: 1.4 OD
- OD450 [13]: 0.46 OD
- OD450 [14]: 0.01 OD
- OD450 [15]: 1.21 OD
- OD450 [16]: 0.01 OD
- OD450 [17]: 0.01 OD
B1: anti-CCR9 antibody clone 115 (murine, from hybridoma #115) (antibody, V domains shown)
VH: QVQLKQSGPELVKPGTSVRVSCTASGYSFTDYIIYWVKQSHGRSLEWIGYIDPNNYNTRYSQKFKGKATLTVDKSSTSAFMHLNSLTSDDSAVYYCARDVYWGQGTTLTVSS
VL: DVVMTQTPLSLTVSLGDQASISCRSSQSLVHSNGKTYLQWYLQKPGQSPKLLIYKVSNRFSGVPDRFSGSGSGTDFTLKISRVEAEDLGVYFCAQSTHVWTFGGGTKLEIKR
notes: Mouse IgG1

- OD450 [18]: 0.46 OD
- OD450 [19]: 1.69 OD
- OD450 [20]: 1.63 OD
- OD450 [21]: 1.47 OD
- OD450 [22]: 0.18 OD
- OD450 [23]: 1.59 OD
- OD450 [24]: 1.6 OD
- OD450 [25]: 1.37 OD
B2: CCR9_HUM2 scFv (humanized anti-CCR9 scFv, SEQ ID NO: 17 with C-terminal 6xHis tag) (scFv)
scFv: QVQLVQSGAEVKKPGASVKVSCTASGYSFTDYIIYWVKQAHGQSLEWMGYIDPNNYNTRYSQKFQGKVTITVDKSSTSAYMELNSLTSDDTAVYYCARDVYWGQGTTVTVSSGGGGSGGGGSGGGGSGGGGSDVVMTQTPLSLSVTPGQPASISCRSSQSLVHSNGKTYLQWYLQKPGQSPKLLIYKVSNRFSGVPDRFSGSGSGTDFTLKISRVEAEDVGVYFCAQSTHVWTFGGGTKVEIKRAHHHHHH

Reference: patent US20260232732A1 (FUNDACI INSTITUT DE RECERCA CONTRA LA LEUC MIA JOSEP …, published 2026)
